Biological target: T1, rituximab (RITUXAN), coated on CD20+ Daudi cells
T1 construct: also called MABTHERA; ZYTUX
Test: flow cytometry titrations compared: rituximab-coated Daudi cells against Jurkat cells (CD3)
From the text: Figure 12: FIG. 12 schematically depicts an assay using Daudi cells to test the ability of an Adapter-like ADCC Enhancer of the present invention to bind CD20+ target cells coated with RITUXAN (rituximab). Figure 13: FIG. 13 illustrates FACS data showing, in an assay according to FIG. 12, the binding between Daudi cells and the ADCC Enhancer of the invention before purification ("Sample Load") and after purification ("Purified Protein"). Figure 14: FIG. 14 illustrates FACS data showing titration of binding between Daudi cells and the ADCC Enhancer of the invention at various concentrations. The volume of the Enhancer in microliters are indicated in the upper right corner of the top six diagrams as: 50, 25, 12.5, 6.25, 3.13 and 1.56 microliters. The bottom diagram summarizes the data. CD20+ Daudi cells were coated with RITUXAN (rituximab) (anti-CD20 antibody) and excess RITUXAN (rituximab) was removed by washing the cells with PBS. RITUXAN (rituximab)-coated cells were incubated with various amounts of the Enhancer, and excess Enhancer was removed by washing the cells in PBS. Bound Enhancer proteins were detected using fluorescent anti-human CD64 antibody.
With tagged protein, binding affinity can also be detected using a fluorescently tagged anti-tag antibody. This approach can also be used to detect binding of the CD64 domain by rituximab-coated CD20⁺ Daudi cells (see FIG. 12). […]

B1: CD64-dhOKT3 fusion protein (Adapter-like ADCC Enhancer) (other)
chain: QVDTTKAVITLQPPWVSVFQEETVTLHCEVLHLPGSSSTQWFLNGTATQTSTPSYRITSASVNDSGEYRCQRGLSGRSDPIQLEIHRGWLLLQVSSRVFTEGEPLALRCHAWKDKLVYNVLYYRNGKAFKFFHWNSNLTILKTNISHNGTYHCSGMGKHRYTSAGISVTVKELFPAPVLNASVTSPLLEGNLVTLSCETKLLLQRPGLQLYFSFYMGSKTLRGRNTSSEYQILTARREDSGLYWCEAATEDGNVLKRSPELELQVLSSGGGGSQVQLVQSGGGVVQPGRSLRLSCKSSGYTFTRYTMHWVRQAPGKGLEWIGYINPSRGYTNYNQKVKDRFTISRDNSKNTAFLQMDSLRPEDTGVYFCARYYDDHYCLDYWGQGTPVTVSSVEGGSGGSGGSGGSGGVDDIQMTQSPSSLSASVGDRVTITCRASSSVSYMNWYQQTPGKAPKRWIYDTSKVASGVPSRFSGSGSGTDYTFTISSLQPEDIATYYCQQWSSNPLTFGQGTKLQIT
notes: Expressed in Expi293 cells and used as culture supernatant or after IgG Sepharose purification; Untagged; also called Soluble Universal ADCC Enhancer Protein; SUAEP
- fold stronger Fc- or antibody-binding than CD3-binding: ~30 fold

— patent US12247062 (1GLOBE BIOMEDICAL, dated 2025)
